Measured values as given in the supplement of paper PMC10065799, “High-throughput profiling of sequence recognition by tyrosine kinases and SH2 domains using bacterial peptide display” (eLife, 2023).

Experiments:
Grb2 SH2 = Grb2 SH2 (UniProt P62993); assay: SH2 binding enrichment of the phosphorylated peptide, bacterial display (enrichment ratio); higher = better substrate or ligand; peptides without Tyr show the background
c-Src SH2 = assay: as above
SHP2-C SH2 = assay: as above
FGFR3 = FGFR3 (UniProt P22607); assay: phosphorylation enrichment, bacterial display (enrichment ratio); higher = better substrate or ligand; peptides without Tyr show the background
Fyn = Fyn (UniProt P06241); assay: as above
Chain of Fyn (P06241 whole entry, looked up): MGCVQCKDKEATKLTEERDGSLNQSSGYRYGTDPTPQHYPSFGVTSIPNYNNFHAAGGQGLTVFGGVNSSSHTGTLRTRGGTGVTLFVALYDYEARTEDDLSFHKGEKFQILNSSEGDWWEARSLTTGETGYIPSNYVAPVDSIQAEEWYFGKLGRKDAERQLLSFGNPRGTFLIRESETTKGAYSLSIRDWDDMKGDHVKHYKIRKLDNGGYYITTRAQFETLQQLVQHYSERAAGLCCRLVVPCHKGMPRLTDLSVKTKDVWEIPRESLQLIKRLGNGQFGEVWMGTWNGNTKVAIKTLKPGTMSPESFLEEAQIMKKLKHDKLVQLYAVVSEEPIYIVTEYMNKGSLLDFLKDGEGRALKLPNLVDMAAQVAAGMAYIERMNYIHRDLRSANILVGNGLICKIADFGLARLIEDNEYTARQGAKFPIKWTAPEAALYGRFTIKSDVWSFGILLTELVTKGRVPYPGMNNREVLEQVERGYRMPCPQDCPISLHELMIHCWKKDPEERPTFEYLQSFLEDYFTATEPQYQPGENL

Jak2 = Jak2 (UniProt O60674); assay: as above
Chain of Jak2 (O60674 whole entry, looked up): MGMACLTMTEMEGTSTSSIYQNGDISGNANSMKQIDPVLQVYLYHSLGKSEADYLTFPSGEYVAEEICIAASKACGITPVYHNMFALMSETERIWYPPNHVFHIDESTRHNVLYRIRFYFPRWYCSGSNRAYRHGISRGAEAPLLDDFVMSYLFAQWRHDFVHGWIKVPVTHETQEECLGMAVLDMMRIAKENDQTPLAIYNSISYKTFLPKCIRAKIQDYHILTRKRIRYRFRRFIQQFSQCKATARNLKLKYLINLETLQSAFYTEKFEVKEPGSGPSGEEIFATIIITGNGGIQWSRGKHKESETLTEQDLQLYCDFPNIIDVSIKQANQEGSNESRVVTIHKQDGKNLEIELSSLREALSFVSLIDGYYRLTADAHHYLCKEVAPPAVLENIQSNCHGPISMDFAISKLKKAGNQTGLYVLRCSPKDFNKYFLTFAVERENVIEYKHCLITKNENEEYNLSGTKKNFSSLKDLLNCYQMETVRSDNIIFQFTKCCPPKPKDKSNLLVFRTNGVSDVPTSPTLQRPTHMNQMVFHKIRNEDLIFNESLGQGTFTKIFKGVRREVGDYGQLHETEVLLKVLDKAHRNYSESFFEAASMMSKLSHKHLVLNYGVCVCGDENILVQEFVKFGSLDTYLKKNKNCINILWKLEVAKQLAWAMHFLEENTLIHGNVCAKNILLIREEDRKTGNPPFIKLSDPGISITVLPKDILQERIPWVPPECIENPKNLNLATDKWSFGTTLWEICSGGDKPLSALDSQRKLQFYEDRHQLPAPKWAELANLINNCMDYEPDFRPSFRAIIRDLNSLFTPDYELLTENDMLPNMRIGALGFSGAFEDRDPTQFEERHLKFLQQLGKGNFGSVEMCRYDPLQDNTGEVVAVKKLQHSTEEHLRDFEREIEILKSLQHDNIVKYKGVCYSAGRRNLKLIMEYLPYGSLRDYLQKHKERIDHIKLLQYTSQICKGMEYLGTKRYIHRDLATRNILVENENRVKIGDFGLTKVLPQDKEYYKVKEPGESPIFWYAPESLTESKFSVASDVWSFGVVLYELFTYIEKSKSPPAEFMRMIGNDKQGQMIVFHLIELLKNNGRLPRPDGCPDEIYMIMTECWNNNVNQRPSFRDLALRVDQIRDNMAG

AncSZ = assay: as above
EPHB1 = EPHB1 (UniProt P54762); assay: as above
Chain of EPHB1 (P54762 whole entry, looked up): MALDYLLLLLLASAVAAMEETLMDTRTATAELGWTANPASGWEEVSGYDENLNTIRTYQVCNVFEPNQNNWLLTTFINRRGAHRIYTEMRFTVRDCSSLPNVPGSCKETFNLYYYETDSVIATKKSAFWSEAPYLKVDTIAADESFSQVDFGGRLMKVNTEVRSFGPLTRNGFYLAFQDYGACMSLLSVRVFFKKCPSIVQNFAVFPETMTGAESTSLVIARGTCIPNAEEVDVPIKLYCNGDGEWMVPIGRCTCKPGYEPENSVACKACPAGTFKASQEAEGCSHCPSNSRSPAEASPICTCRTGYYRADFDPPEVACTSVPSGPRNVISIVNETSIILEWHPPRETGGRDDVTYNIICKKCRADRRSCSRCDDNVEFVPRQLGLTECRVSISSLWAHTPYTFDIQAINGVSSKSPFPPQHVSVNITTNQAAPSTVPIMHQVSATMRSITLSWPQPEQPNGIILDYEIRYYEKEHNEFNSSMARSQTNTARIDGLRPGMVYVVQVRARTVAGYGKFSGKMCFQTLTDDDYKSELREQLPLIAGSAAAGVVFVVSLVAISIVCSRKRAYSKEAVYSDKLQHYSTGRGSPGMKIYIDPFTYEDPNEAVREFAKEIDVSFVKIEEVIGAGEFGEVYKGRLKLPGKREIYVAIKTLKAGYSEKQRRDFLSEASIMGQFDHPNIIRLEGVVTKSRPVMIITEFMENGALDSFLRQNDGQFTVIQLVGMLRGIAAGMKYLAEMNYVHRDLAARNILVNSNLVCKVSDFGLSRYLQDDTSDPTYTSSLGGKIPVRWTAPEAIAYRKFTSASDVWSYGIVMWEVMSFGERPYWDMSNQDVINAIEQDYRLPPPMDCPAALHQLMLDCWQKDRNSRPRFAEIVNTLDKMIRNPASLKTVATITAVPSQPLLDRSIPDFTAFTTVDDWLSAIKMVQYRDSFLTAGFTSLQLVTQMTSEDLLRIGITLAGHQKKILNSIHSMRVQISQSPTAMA

c-Src = assay: as above
Fes = Fes (UniProt P07332); assay: as above
Chain of Fes (P07332 whole entry, looked up): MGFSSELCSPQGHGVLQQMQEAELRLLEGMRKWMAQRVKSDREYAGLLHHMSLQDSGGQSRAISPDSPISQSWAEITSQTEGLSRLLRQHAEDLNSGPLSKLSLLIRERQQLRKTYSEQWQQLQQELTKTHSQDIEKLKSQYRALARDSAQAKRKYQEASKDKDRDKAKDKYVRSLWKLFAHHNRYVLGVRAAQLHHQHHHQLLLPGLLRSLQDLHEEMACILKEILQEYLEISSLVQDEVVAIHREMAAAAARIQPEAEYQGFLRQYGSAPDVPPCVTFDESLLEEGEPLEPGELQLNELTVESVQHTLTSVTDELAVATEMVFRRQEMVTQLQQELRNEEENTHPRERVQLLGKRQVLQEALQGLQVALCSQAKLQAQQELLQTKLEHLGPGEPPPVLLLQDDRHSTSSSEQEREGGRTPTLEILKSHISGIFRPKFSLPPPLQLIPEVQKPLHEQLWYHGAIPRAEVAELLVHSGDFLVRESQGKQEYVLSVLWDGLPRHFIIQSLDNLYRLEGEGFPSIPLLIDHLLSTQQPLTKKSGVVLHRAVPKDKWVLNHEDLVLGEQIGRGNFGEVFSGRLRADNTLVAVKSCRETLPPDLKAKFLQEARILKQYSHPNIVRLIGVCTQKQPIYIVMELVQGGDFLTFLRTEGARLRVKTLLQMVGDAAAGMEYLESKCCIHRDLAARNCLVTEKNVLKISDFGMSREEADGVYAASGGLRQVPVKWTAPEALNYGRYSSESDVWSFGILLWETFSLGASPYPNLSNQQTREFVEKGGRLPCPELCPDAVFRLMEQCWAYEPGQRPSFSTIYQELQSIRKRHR

FGFR1 = FGFR1 (UniProt P11362); assay: as above
MERTK = MERTK (UniProt Q12866); assay: as above
Chain of MERTK (Q12866 whole entry, looked up): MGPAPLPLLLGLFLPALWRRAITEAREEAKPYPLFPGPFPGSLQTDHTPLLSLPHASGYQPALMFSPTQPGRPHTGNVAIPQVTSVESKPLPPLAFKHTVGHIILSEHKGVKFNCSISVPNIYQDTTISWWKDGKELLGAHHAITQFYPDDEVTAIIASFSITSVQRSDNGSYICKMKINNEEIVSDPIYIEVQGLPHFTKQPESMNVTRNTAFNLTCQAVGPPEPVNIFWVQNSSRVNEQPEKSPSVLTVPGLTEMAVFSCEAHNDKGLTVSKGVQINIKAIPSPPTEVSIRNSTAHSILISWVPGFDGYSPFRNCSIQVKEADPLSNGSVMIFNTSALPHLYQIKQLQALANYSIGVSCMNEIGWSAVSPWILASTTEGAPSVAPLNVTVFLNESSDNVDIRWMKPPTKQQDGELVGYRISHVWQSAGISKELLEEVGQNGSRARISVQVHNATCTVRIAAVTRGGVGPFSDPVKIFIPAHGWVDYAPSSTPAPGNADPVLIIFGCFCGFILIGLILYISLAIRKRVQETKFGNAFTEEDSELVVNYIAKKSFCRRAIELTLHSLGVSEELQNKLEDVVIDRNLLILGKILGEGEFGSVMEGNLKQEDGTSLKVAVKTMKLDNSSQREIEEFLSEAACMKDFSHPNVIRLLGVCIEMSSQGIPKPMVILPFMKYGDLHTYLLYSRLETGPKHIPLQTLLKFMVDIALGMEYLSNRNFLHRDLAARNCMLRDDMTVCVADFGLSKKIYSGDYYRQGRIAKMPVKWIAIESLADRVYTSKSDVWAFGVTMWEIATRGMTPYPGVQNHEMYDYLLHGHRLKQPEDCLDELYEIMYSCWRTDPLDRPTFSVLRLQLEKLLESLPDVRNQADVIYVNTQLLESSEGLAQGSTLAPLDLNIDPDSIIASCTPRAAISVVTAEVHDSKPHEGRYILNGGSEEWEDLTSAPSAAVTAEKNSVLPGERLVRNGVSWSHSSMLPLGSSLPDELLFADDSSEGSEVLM

Hck = Hck (UniProt P08631); assay: as above
Fer (mouse) = assay: as above
c-Abl (mouse) = assay: as above
EPHB2 = EPHB2 (UniProt P29323); assay: as above
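Throughout, for SH2 binding enrichment of the phosphorylated peptide, bacterial display: peptide library displayed on the E. coli surface as eCPX fusions, selected cells deep-sequenced, score is each peptide's frequency after selection divided by its frequency in the input.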
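Throughout, for phosphorylation enrichment, bacterial display: 11-residue human phosphosite peptides and single-mutation variants displayed on the E. coli surface, counted by deep sequencing, each peptide's frequency after selection divided by its frequency in the unselected input library; frequency after pTyr selection over input frequency; kinase dosed for 20-30% of maximal phosphorylation in three min.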

Chain of Grb2 SH2 (P62993 whole entry, looked up): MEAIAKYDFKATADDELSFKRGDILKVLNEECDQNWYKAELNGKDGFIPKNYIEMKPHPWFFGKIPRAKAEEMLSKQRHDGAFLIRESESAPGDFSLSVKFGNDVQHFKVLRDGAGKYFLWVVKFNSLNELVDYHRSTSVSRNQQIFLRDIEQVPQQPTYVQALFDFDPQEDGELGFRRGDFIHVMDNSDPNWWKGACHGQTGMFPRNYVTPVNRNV

Sequence | SH2 binding enrichment (Grb2 SH2) | SH2 binding enrichment (c-Src SH2) | SH2 binding enrichment (SHP2-C SH2) | phosphorylation enrichment (FGFR3) | phosphorylation enrichment (Fyn) | phosphorylation enrichment (Jak2) | phosphorylation enrichment (AncSZ) | phosphorylation enrichment (EPHB1) | phosphorylation enrichment (c-Src) | phosphorylation enrichment (Fes) | phosphorylation enrichment (FGFR1) | phosphorylation enrichment (MERTK) | phosphorylation enrichment (Hck) | phosphorylation enrichment (Fer (mouse)) | phosphorylation enrichment (c-Abl (mouse)) | phosphorylation enrichment (EPHB2)
REVPVYTFSEP [FAM120B_Y368_D370Y_YF] | 1.16 | 0.496 | 0.8 | 1.33 | 11.5 | 1.1 | 1.83 | 1.9 | 9.04 | 1.54 | 1.14 | 3.58 | 4.36 | 11.1 | 1.72 | 1.06
RFLRGYRQHAY [HLA-A_Y137_D140H] | 0.539 | 0.424 | 0.57 | 0.849 | 0.654 | 0.979 | 1.1 | 0.787 | 1.11 | 1.04 | 0.623 | 1.33 | 1.06 | 1.02 | 1.31 | 0.879
RGFRQDAFDGK [HLA-A_Y140_YF] | 0.711 | 0.412 | 1.05 | 0.73 | 0.414 | 0.461 | 0.575 | 0.454 | 0.633 | 0.633 | 0.488 | 0.559 | 0.396 | 0.487 | 0.935 | 0.475
RGGDSYGGPPR [RBMX_Y190_R187G] | 1.96 | 0.75 | 0.798 | 0.58 | 0.524 | 0.43 | 0.498 | 0.399 | 0.592 | 0.848 | 0.454 | 0.586 | 0.656 | 0.441 | 0.735 | 0.5
RGKEPYTKKAL [TTC21B_Y160] | 0.785 | 0.651 | 0.78 | 0.522 | 0.438 | 0.773 | 0.815 | 0.596 | 0.829 | 1.01 | 0.568 | 0.724 | 0.436 | 0.299 | 0.933 | 0.698
RGSQQYRALTV [TUBB8_Y281] | 1.04 | 0.535 | 0.919 | 0.364 | 0.325 | 0.77 | 0.862 | 0.368 | 0.594 | 0.633 | 0.428 | 0.516 | 0.866 | 0.584 | 0.84 | 0.518
RIGRKYKRVRF [F8_Y442_K444R] | 0.554 | 0.302 | 0.533 | 1.55 | 1.35 | 2.55 | 2.77 | 0.967 | 3.73 | 3.31 | 1.13 | 2.74 | 1.23 | 1.45 | 2.59 | 1.65
RKELFYKADGE [SERPINC1_Y272] | 0.858 | 0.369 | 0.942 | 0.638 | 0.519 | 0.893 | 1.12 | 0.824 | 0.63 | 1.08 | 0.713 | 0.659 | 0.881 | 0.783 | 0.779 | 0.548
RKLVDYDSAQH [BIN1_Y150_R154Q] | 1.1 | 0.541 | 0.607 | 1.28 | 0.4 | 0.56 | 0.548 | 0.648 | 0.541 | 0.988 | 0.425 | 0.565 | 0.668 | 0.737 | 0.871 | 0.796
RKQQLYIAMEE [CCDC39_Y593_T594I] | 0.916 | 0.938 | 0.909 | 0.543 | 0.655 | 0.7 | 0.993 | 0.651 | 0.753 | 1.28 | 0.8 | 1 | 0.431 | 0.607 | 0.725 | 0.822
RKVAQYMLENE [SLC16A6_Y224_E221V] | 0.697 | 0.697 | 0.617 | 0.933 | 0.716 | 1.03 | 0.876 | 0.612 | 0.389 | 0.859 | 0.648 | 0.465 | 0.718 | 0.861 | 0.506 | 0.901
RLEPVYFVAPA [LAMC2_Y250_D247E] | 0.798 | 0.625 | 0.709 | 8.72 | 9.5 | 1.7 | 2.59 | 7.02 | 6.33 | 1.02 | 9.12 | 7.77 | 7.76 | 0.985 | 9.14 | 6.76
RLLRGYRQDAY [HLA-A_Y137_F133L] | 0.638 | 0.437 | 0.593 | 0.519 | 0.769 | 0.802 | 0.985 | 0.374 | 0.537 | 0.777 | 0.608 | 0.694 | 0.645 | 0.653 | 0.67 | 0.611
RLPNGYGLAYR [DLK1_Y262_S260N] | 1.15 | 0.656 | 0.55 | 0.573 | 0.961 | 0.509 | 0.706 | 0.416 | 0.423 | 0.737 | 0.663 | 0.453 | 0.571 | 0.504 | 0.413 | 0.528
RLSPEYKQNEI [GJB1_Y243] | 0.749 | 0.817 | 0.933 | 0.446 | 0.403 | 0.59 | 0.82 | 0.468 | 0.72 | 0.682 | 0.481 | 0.621 | 0.584 | 0.491 | 0.821 | 0.555
RLTEGYTGPFK [ZNF862_Y181_I178T] | 1.14 | 0.522 | 0.547 | 0.456 | 0.473 | 0.625 | 0.519 | 0.323 | 0.423 | 0.611 | 0.364 | 0.402 | 0.509 | 0.382 | 0.426 | 0.41
